Non-standard residues stand in square brackets, D forms with d. No end group written: not given here.

In assay [1] the target is human serum proteins. Nature of the assay: cell-based or functional assay.
In assay [2] the target is D38. Nature of the assay: RP-HPLC temperature profiling 5-77 C, pH 2, self-association (dimerization/oligomerization) relative to random coil control RC.
Assay [3] concerns the target D88 (D34(A1K)). Nature of the assay: RP-HPLC temperature profiling (0.25% B/min gradient), Mix 2, self-association relative to RC.
In assay [4] the target is D103 (D34(A1K)K26S). The description is as above.
The target in assay [5] is D37. Nature of the assay: RP-HPLC temperature profiling (0.25% B/min gradient), control AMP, self-association relative to RC.
Assay [6] deals with D37. Nature of the assay: RP-HPLC temperature profiling 5-77 C, pH 2, self-association (dimerization/oligomerization) relative to random coil control RC.
Assay [7] deals with D87 (D84K3ArgK7ArgK11ArgK18ArgK22ArgK26Arg). Nature of the assay: RP-HPLC temperature profiling (0.25% B/min gradient), Mix 1, self-association relative to RC.
Assay [8] addresses D101 (D33(A1K)K26S). Nature of the assay: RP-HPLC temperature profiling (0.25% B/min gradient), Mix 2, self-association relative to RC.
The target in assay [9] is D105 (D84K3DprK7DprK11DprK18DprK22DprK26Dpr). Nature of the assay: RP-HPLC temperature profiling (0.25% B/min gradient), Mix 1, self-association relative to RC.
Assay [10] has the same target. Nature of the assay: RP-HPLC temperature profiling (0.25% B/min gradient), Mix 4, self-association relative to RC.
Assay [11] concerns the target D40. Nature of the assay: RP-HPLC temperature profiling 5-77 C, pH 2, self-association (dimerization/oligomerization) relative to random coil control RC.
Assay [12] concerns the target D39. The description is as above.
The target of assay [13] is D106 (D88K3DprK7DprK14DprK15DprK22DprK26Dpr). Nature of the assay: RP-HPLC temperature profiling (0.25% B/min gradient), Mix 4, self-association relative to RC.
The target in assay [14] is D85 (D84K3OrnK7OrnK11OrnK18OrnK22OrnK26Orn). Nature of the assay: RP-HPLC temperature profiling (0.25% B/min gradient), Mix 1, self-association relative to RC.

B1: D38 (peptide)
peptide: [dA][dL][dK][dS][dL][dL][dK][dT][dL][dS][dA][dA][dA][dK][dK][dA][dL][dA][dT][dL][dL][dK][dA][dL][dS][dK]-NH2
modifications: N-terminus assumed
SMILES: CC(C)C[C@@H](NC(=O)[C@@H](C)N)C(=O)N[C@H](CCCCN)C(=O)N[C@H](CO)C(=O)N[C@H](CC(C)C)C(=O)N[C@H](CC(C)C)C(=O)N[C@H](CCCCN)C(=O)N[C@@H](C(=O)N[C@H](CC(C)C)C(=O)N[C@H](CO)C(=O)N[C@H](C)C(=O)N[C@H](C)C(=O)N[C@H](C)C(=O)N[C@H](CCCCN)C(=O)N[C@H](CCCCN)C(=O)N[C@H](C)C(=O)N[C@H](CC(C)C)C(=O)N[C@H](C)C(=O)N[C@@H](C(=O)N[C@H](CC(C)C)C(=O)N[C@H](CC(C)C)C(=O)N[C@H](CCCCN)C(=O)N[C@H](C)C(=O)N[C@H](CC(C)C)C(=O)N[C@H](CO)C(=O)N[C@H](CCCCN)C(N)=O)[C@H](C)O)[C@H](C)O
On to B1, for which the MIC against A. baumannii strain 649 in 25% human serum (no serum: 0.7) in assay [1] was > 92.8 µM. In addition, in assay [2], the PA (self-association parameter) came to 19.5 min.

B2: D88 (D34(A1K)) (peptide)
peptide: Ac-KLKSLLKTLSAAKKKKLATLLKALSK-NH2
modifications: not fully specified; printed as Ac-KL(Lys)SLL(Lys)TLSAAK(Lys)(Lys)KLATLL(Lys)ALS(Lys)-amide; also: D-enantiomeric residues, extent not given here
On to B2, for which the PA (self-association parameter) in assay [3] came to 6.9 min.
On to Ac-KLKSLLKTLSAAKKKKLATLLKALSS-NH2 (not fully specified; also: D-enantiomeric residues, extent not given here) [D103 (D34(A1K)K26S)], for which the PA (self-association parameter) in [4] was 7.2 min.

B3: D37 (peptide)
peptide: [dA][dL][dK][dS][dL][dL][dK][dT][dL][dS][dK][dA][dA][dA][dA][dA][dL][dK][dT][dL][dL][dK][dA][dL][dS][dK]-NH2
modifications: N-terminus assumed
SMILES: CC(C)C[C@@H](NC(=O)[C@@H](C)N)C(=O)N[C@H](CCCCN)C(=O)N[C@H](CO)C(=O)N[C@H](CC(C)C)C(=O)N[C@H](CC(C)C)C(=O)N[C@H](CCCCN)C(=O)N[C@@H](C(=O)N[C@H](CC(C)C)C(=O)N[C@H](CO)C(=O)N[C@H](CCCCN)C(=O)N[C@H](C)C(=O)N[C@H](C)C(=O)N[C@H](C)C(=O)N[C@H](C)C(=O)N[C@H](C)C(=O)N[C@H](CC(C)C)C(=O)N[C@H](CCCCN)C(=O)N[C@@H](C(=O)N[C@H](CC(C)C)C(=O)N[C@H](CC(C)C)C(=O)N[C@H](CCCCN)C(=O)N[C@H](C)C(=O)N[C@H](CC(C)C)C(=O)N[C@H](CO)C(=O)N[C@H](CCCCN)C(N)=O)[C@H](C)O)[C@H](C)O
With B3, the MIC against A. baumannii strain 649 in 25% human serum (no serum: 2.9) in assay [1] is > 92.8 µM. The PA (self-association parameter) in [5] turned out to be 37 min; in assay [6], 18.5 min.

B4: D87 (D84K3ArgK7ArgK11ArgK18ArgK22ArgK26Arg) (peptide)
peptide: Ac-KLRSLLRTLSRAKAAKLRTLLRALSR-NH2
modifications: not fully specified; printed as Ac-KL(Arg)SLL(Arg)TLS(Arg)AKAAKL(Arg)TLL(Arg)ALs(Arg)-amide; also: D-enantiomeric residues, extent not given here
On to B4, for which the PA (self-association parameter) in assay [7] is 3.4 min.
In assay [8], Ac-KLKSLLKTLSKAKAAKLKTLLKALSS-NH2 (not fully specified; also: D-enantiomeric residues, extent not given here) [D101 (D33(A1K)K26S)] registered a PA (self-association parameter) of 7.2 min.

B5: D105 (D84K3DprK7DprK11DprK18DprK22DprK26Dpr) (peptide)
peptide: Ac-KLXSLLXTLSXAKAAKLXTLLXALSX-NH2
modifications: not fully specified (some residues); printed as Ac-KL(Dpr)SLL(Dpr)TLS(Dpr)AKAAKL(Dpr)TLL(Dpr)ALS(Dpr)-amide
For B5, the PA (self-association parameter) in assay [9] and in assay [10] was 2.8 min in each case.

B6: D40 (peptide)
peptide: [dA][dL][dA][dS][dL][dL][dK][dT][dL][dS][dK][dA][dA][dK][dK][dA][dL][dK][dT][dL][dL][dK][dA][dL][dS][dA]-NH2
modifications: N-terminus assumed
SMILES: CC(C)C[C@@H](NC(=O)[C@@H](C)N)C(=O)N[C@H](C)C(=O)N[C@H](CO)C(=O)N[C@H](CC(C)C)C(=O)N[C@H](CC(C)C)C(=O)N[C@H](CCCCN)C(=O)N[C@@H](C(=O)N[C@H](CC(C)C)C(=O)N[C@H](CO)C(=O)N[C@H](CCCCN)C(=O)N[C@H](C)C(=O)N[C@H](C)C(=O)N[C@H](CCCCN)C(=O)N[C@H](CCCCN)C(=O)N[C@H](C)C(=O)N[C@H](CC(C)C)C(=O)N[C@H](CCCCN)C(=O)N[C@@H](C(=O)N[C@H](CC(C)C)C(=O)N[C@H](CC(C)C)C(=O)N[C@H](CCCCN)C(=O)N[C@H](C)C(=O)N[C@H](CC(C)C)C(=O)N[C@H](CO)C(=O)N[C@H](C)C(N)=O)[C@H](C)O)[C@H](C)O
For B6, the MIC against A. baumannii strain 649 in 25% human serum (no serum: 2.9) in assay [1] is > 92.8 µM. The molecule also came in with a PA (self-association parameter) in assay [11] of 18.7 min.

B7: D39 (peptide)
peptide: [dA][dL][dK][dS][dL][dL][dA][dT][dL][dS][dK][dA][dA][dK][dK][dA][dL][dK][dT][dL][dL][dA][dA][dL][dS][dK]-NH2
modifications: N-terminus assumed
SMILES: CC(C)C[C@@H](NC(=O)[C@@H](C)N)C(=O)N[C@H](CCCCN)C(=O)N[C@H](CO)C(=O)N[C@H](CC(C)C)C(=O)N[C@H](CC(C)C)C(=O)N[C@H](C)C(=O)N[C@@H](C(=O)N[C@H](CC(C)C)C(=O)N[C@H](CO)C(=O)N[C@H](CCCCN)C(=O)N[C@H](C)C(=O)N[C@H](C)C(=O)N[C@H](CCCCN)C(=O)N[C@H](CCCCN)C(=O)N[C@H](C)C(=O)N[C@H](CC(C)C)C(=O)N[C@H](CCCCN)C(=O)N[C@@H](C(=O)N[C@H](CC(C)C)C(=O)N[C@H](CC(C)C)C(=O)N[C@H](C)C(=O)N[C@H](C)C(=O)N[C@H](CC(C)C)C(=O)N[C@H](CO)C(=O)N[C@H](CCCCN)C(N)=O)[C@H](C)O)[C@H](C)O
As for B7, the MIC against A. baumannii strain 649 in 25% human serum (no serum: 1.4) in assay [1] was > 92.8 µM. The PA (self-association parameter) in assay [12] turned out to be 18.5 min.

B8: D106 (D88K3DprK7DprK14DprK15DprK22DprK26Dpr) (peptide)
peptide: Ac-KLXSLLXTLSAAKXXKLATLLXALSX-NH2
modifications: not fully specified (some residues); printed as Ac-KL(Dpr)SLL(Dpr)TLSAAK(Dpr)(Dpr)KLATLL(Dpr)ALs(Dpr)-amide
In the case of B8, the PA (self-association parameter) in assay [13] stood at 2.5 min.

B9: D85 (D84K3OrnK7OrnK11OrnK18OrnK22OrnK26Orn) (peptide)
peptide: Ac-KLXSLLXTLSXAKAAKLXTLLXALSX-NH2
modifications: not fully specified (some residues); printed as Ac-KL(Orn)SLL(Orn)TLS(Orn)AKAAKL(Orn)TLL(Orn)ALS(Orn)-amide
Turning to B9, the PA (self-association parameter) in assay [14] amounted to 2.9 min.

These data come from US20200129634A1.
